# Measurements as given in patent publication US20190053489A1, “ANTIMICROBIAL COMPOSITION” (NATIONAL UNIVERSITY CORPORATION TOKYO MEDICAL AND DENTAL …, priority 2016, published 2019).
# Test system: Micrococcus luteus bacteria
# Test: Heat resistance evaluation by bacteriolytic test
# Type: physicochemical
# Conditions: 80° C. for 2 hours; ΔOD at 10 minutes with vs without heating; complex 5%, lysozyme 2.5% aqueous solution; FIG. 6(D)
# Protocol: This test is a bacteriolytic test using Micrococcus luteus bacteria being lysozyme-sensitive bacteria. Note that the bacteriolytic activity is an activity specific to lysozyme. Lysozyme is a protein relatively stable against heat. However, it is known that this activity generally decreases considerably for lysozyme heated at 80° C. for 30 minutes.
# This test employed an aqueous solution of the lysozyme-chitosan complex with a concentration of 5%, an aqueous solution of lysozyme with a concentration of 2.5%, and an aqueous solution of the mixture of lysozyme and chitosan with a concentration of […]. In addition, Micrococcus luteus bacteria manufactured by Wako Pure Chemical Industries, Ltd. were used as the use bacteria.
# First, 1 g of Micrococcus luteus bacteria was weighed on the day before the test, added to 100 ml of physiological saline, and stirred overnight at 4° C. […]
# In an optical density meter, 2800 μl of the test microbial solution was set to record OD (0-1) immediately before the addition of the sample. […] Since OD increased here, the highest value OD (0-2) was recorded.
# Timer measurement was started after the addition of the sample to record OD at the time of 2, 4, 6, 8, and 10 minutes passed. Each test was carried out twice, and the average was calculated.
# With OD for (0-2) being OD at the time of the start, Δoptical density (AOD) at each point was calculated. […]
substance,measurement,value
lysozyme-chitosan complex: complex of lysozyme and water-soluble chitosan (molecular weight 14000 Da) bound to each other through the Maillard reaction,residual activity (bacteriolytic) after heating treatment,91.9%
